The chains are these.
B1: AE11-5 AM4 (antibody, V domains shown)
VH: EVQLVQSGAEVKKPGSSVKVSCKASGGTFSWYAISWVRQAPGQGLEWMGGITPILGSPIYAQKFQGRVTITADESTSTVYMELSSLRSEDTAVYYCARGVYYDPKRADYWGQGTLVTVSS
VL: EIVLTQSPDFQSVTPKEKVTITCRASQRIGSSLHWYQQKPDQSPKLLIKHASQSVSGVPSRFSGSGSGTDFTLTINSLEAEDAATYYCHQSRSSPPPTFGQGTKVEIK
notes: Full length IgG converted from scFv clone J703M1S3#30; Human IgG1 (hCg1,z,non-a,mut(234,235)) with human kappa; also called J703M1S3#30
B2: AE11-5 AM2 (antibody, V domains shown)
VH: B1 VH with S57A, P58A, I59N
VL: EIVLTQSPDFQSVTPKEKVTITCRASQSIGSTLHWYQQKPDQSPKLLIKHASQSNSGVPSRFSGSGSGTDFTLTINSLEAEDAATYYCHQSSSLPPPTFGQGTKVEI
notes: Full length IgG converted from scFv clone J703M1S3#13; Human IgG1 (hCg1,z,non-a,mut(234,235)) with human kappa; also called J703M1S3#13
B3: AE11-5 AM3 (antibody, V domains shown)
VH: B1 VH with S57T, P58A, I59N
VL: B1 VL with R28S, S32R, V55T, R92G, P97R
notes: Full length IgG converted from scFv clone J703M1S3#26; Human IgG1 (hCg1,z,non-a,mut(234,235)) with human kappa; also called J703M1S3#26
B4: AE11-5 AM9 (antibody, V domains shown)
VH: B1 VH with V100I
VL: B1 VL with R28S, A51V, V55L, S91R, R92S, P96S
notes: Full length IgG converted from scFv clone J703M1S3#69; Human IgG1 (hCg1,z,non-a,mut(234,235)) with human kappa; also called J703M1S3#69
B5: AE11-5 AM5 (antibody, V domains shown)
VH: B1 VH with A33P, S57A, P58G, P104F
VL: B1 VL with R28S, V55T, R92S, P97S
notes: Full length IgG converted from scFv clone J703M1S3#33; Human IgG1 (hCg1,z,non-a,mut(234,235)) with human kappa; also called J703M1S3#33
B6: AE11-5 AM10 (antibody, V domains shown)
VH: B1 VH with P104Y
VL: B1 VL with R28S, S32N, V55I, S91T, S93T, P97L
notes: Full length IgG converted from scFv clone J703M1S3#90; Human IgG1 (hCg1,z,non-a,mut(234,235)) with human kappa; also called J703M1S3#90
B7: AE11-5 AM6 (antibody, V domains shown)
VH: B1 VH with P58A, I59T, V100I
VL: B1 VL with R28T, V55I, S91T, R92S, S94L, P96T
notes: Full length IgG converted from scFv clone J703M1S3#35; Human IgG1 (hCg1,z,non-a,mut(234,235)) with human kappa; also called J703M1S3#35
B8: AE11-5 AM1 (antibody, V domains shown)
VH: B1 VH with I34T, P104H, K105R
VL: B1 VL with R28S, S31N, S32T, A51V, S91K, R92V, P96S
notes: Full length IgG converted from scFv clone J703M1S3#2; Heavy chain plasmid is pHybE-hCg1,z,non-a,mut(234,235), i.e. human IgG1 with mutations at 234 and 235; Light chain plasmid is pHybE-hCk, i.e. human kappa; also called J703M1S3#2
B9: AE11-5 AM8 (antibody, V domains shown)
VH: B1 VH with S57T, P104F
VL: B1 VL with R28T, V55I, R92S
notes: Full length IgG converted from scFv clone J703M1S3#38; Human IgG1 (hCg1,z,non-a,mut(234,235)) with human kappa; also called J703M1S3#38

The source of these data is patent US20130164256A1 (AbbVie / Abbott, published 2013).

Where a chain is given by its changes, count along the chain named.

T1 sequence (P01375 77-233 R107D limits assumed): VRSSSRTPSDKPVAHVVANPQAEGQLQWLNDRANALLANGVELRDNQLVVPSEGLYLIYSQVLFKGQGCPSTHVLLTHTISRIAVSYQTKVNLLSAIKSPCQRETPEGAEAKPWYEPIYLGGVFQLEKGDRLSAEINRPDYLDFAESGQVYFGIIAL
Sequence of Rhesus/Macaque TNF (P48094 77-233 limits assumed): as the sequence (P01375 77-233 R107D limits assumed) above, with D31R, R44T, T72N, R138L counted along it
T2 sequence (P79337 77-233 limits assumed): as the sequence (P01375 77-233 R107D limits assumed) above, with D31R, L37V, R44T, T72N, R138L counted along it

The first assay addresses T1, human TNF-α (human, UniProt P01375 77-233, biotin label in the ELISA (site not stated); unlabelled in the L929 bioassay).
T1 construct: also called hTNF; hTNF-α
Put plainly: ELISA; IgG captured on goat anti-human IgG-Fc, serially diluted biotinylated human TNF, streptavidin-HRP. On the procedure: (§1) The following protocol is used to characterize the binding of TNF antibodies to biotinylated human or cyno TNF by enzyme-linked immunosorbent assay (ELISA). An ELISA plate was coated with 50 μl per well of goat anti human IgG-Fc at 2 μg/ml, overnight at 4° C. The plate was washed 3 times with PBS/Tween. 50 μl Mab diluted to 1 μg/ml in PBS/0.1% BSA was added to appropriate wells and incubated for 1 hour at room temperature (RT). The plate was washed 3 times with PBS/Tween. 50 μl of serial diluted biotin-human TNF was added to appropriate wells and incubated for 1 hour at RT. The plate was washed 3 times with PBS/Tween. 50 μl of streptavidin-HRP diluted 1:10,000 in PBS/0.1% BSA was added to appropriate wells and incubated for 1 hour at RT. The plate was washed 3 times with PBS/Tween. 50 μl of TMB was added to appropriate wells and the reaction was allowed to proceed for 1 minute. The reaction was stopped with 50 μl/well 2N H₂SO₄ and the absorbance read at 450 nm.
A general note: An ELISA detects its analyte on a solid surface through an enzyme-linked reagent.
On to B1, for which the EC50 (commonly the midpoint of the concentration-response curve) was determined as 18.3 nM.
Same read-out and setting: in the case of B2 it was 522 nM.
B3 returned an EC50 of 1.57 nM.
Still for that read-out and setting: in the case of B4 it was 16.7 nM; in that of B5, 17.7 nM.
On the same count and under the same terms, in the case of B6 it was 0.98 nM.
With B7, it took 1.37 nM to reach a half-maximal effect (EC50).
Same read-out and setting: in the case of B8 it was 1.06 nM; in that of B9, 250 nM.

Another assay concerns the target Rhesus/Macaque TNF (Rhesus/Macaque, UniProt P48094 77-233). As to the kind of experiment: cell-based or functional assay.
With B1, the “rhesus TNF neutralization IC50” value was found to be 0.109 nM.
Still for that read-out and setting: for B2 the value was 0.756 nM; for B3, 0.165 nM.
Regarding B4, the “rhesus TNF neutralization IC50” value was found to be 0.123 nM.
Still for that read-out and setting: in the case of B5 it was 0.613 nM.
Consider B6, for which the “rhesus TNF neutralization IC50” value worked out at 0.14 nM.
In the case of B7, the “rhesus TNF neutralization IC50” value was found to be 0.652 nM.
B8: the “rhesus TNF neutralization IC50” value is 0.251 nM.
Same read-out and setting: for B9 the value was 3.04 nM.

The target in another assay is T1, human TNF-α. As to the kind of experiment: cell-based or functional assay.
Regarding B1, the “hu TNF neutralization IC50” value is 0.259 nM.
In the case of B2, the “hu TNF neutralization IC50” value came out at 1.24 nM.
The same measure, in the same setting: for B3 the value was 0.291 nM; for B4, 0.391 nM.
On the same count and under the same terms, for B5 the value was 0.968 nM; for B6, 0.678 nM; for B7, 2.03 nM.
Turning to B8, the “hu TNF neutralization IC50” value was 0.439 nM.
On the same count and under the same terms, for B9 the value was 1.36 nM.

Another assay has as its target T2, cynomolgus monkey TNF (cynomolgus monkey, UniProt P79337 77-233, limits assumed, biotin label in the ELISA (site not stated)).
T2 construct: also called cynoTNF; cyno TNF
As to the kind of experiment: ELISA; IgG captured on goat anti-human IgG-Fc, serially diluted biotinylated cyno TNF, streptavidin-HRP. As for the experimental part: as §1
Consider B1, for which the EC50 was 750 nM.
B3 came in with an EC50 of 1.55 nM.
The molecule B4 yielded an EC50 of 5.29 nM.
The same measure, in the same setting: for B5 the value was 2.2 nM.
For B6, the EC50 stood at 0.28 nM.
The same measure, in the same setting: for B8 the value was 2.14 nM; for B9, 58.6 nM.
